This note sets out measurements from PMC3592468.

Substrate in the series: C[C@@H](O)[C@H](N)C(=O)O
Nature of the series: purified protein. The following applies: 2.5 mM ATP, 2 mM PPi, 10 mM MgCl2, pH 7.5, 30 °C, no tRNA. It counts as biochemical, Saccharomyces cerevisiae.

B1: ScThrRS (Saccharomyces cerevisiae S288C) (protein)
chain: MSASEAGVTEQVKKLSVKDSSNDAVKPNKKENKKSKQQSLYLDPEPTFIEERIEMFDRLQKEYNDKVASMPRVPLKIVLKDGAVKEATSWETTPMDIAKGISKSLADRLCISKVNGQLWDLDRPFEGEANEEIKLELLDFESDEGKKVFWHSSAHVLGESCECHLGAHICLGPPTDDGFFYEMAVRDSMKDISESPERTVSQADFPGLEGVAKNVIKQKQKFERLVMSKEDLLKMFHYSKYKTYLVQTKVPDGGATTVYRCGKLIDLCVGPHIPHTGRIKAFKLLKNSSCYFLGDATNDSLQRVYGISFPDKKLMDAHLKFLAEASMRDHRKIGKEQELFLFNEMSPGSCFWLPHGTRIYNTLVDLLRTEYRKRGYEEVITPNMYNSKLWETSGHWANYKENMFTFEVEKETFGLKPMNCPGHCLMFKSRERSYRELPWRVADFGVIHRNEFSGALSGLTRVRRFQQDDAHIFCTHDQIESEIENIFNFLQYIYGVFGFEFKMELSTRPEKYVGKIETWDAAESKLESALKKWGGNWEINAGDGAFYGPKIDIMISDALRRWHQCATIQLDFQLPNRFELEFKSKDQDSESYERPVMIHRAILGSVERMTAILTEHFAGKWPFWLSPRQVLVVPVGVKYQGYAEDVRNKLHDAGFYADVDLTGNTLQKKVRNGQMLKYNFIFIVGEQEMNEKSVNIRNRDVMEQQGKNATVSVEEVLKQLRNLKDEKRGDNVLA
As to B1, the Km was 210 ± 20 µM, the catalytic constant (kcat) came to 1.72 ± 0.21 s⁻¹ and the catalytic efficiency (kcat/Km) came to 8190 M⁻¹ s⁻¹.
